For assay [1], the target named is Human CD137 (R&D systems) (human, UniProt Q07011 24-186, limits assumed). The assay can be described thus: SPR Biacore, amine-coupled CD137, mAb injected (bivalent). As to the method: Human CD137 (R&D systems) was immobilized to the Biacore™ sensor chip, CMS, using conventional amine coupling. The tested antibody and control (serially diluted 1/2 10-0.63 nM) were analyzed for binding in HBS-P (GE, #BR-1003-68) at a flow rate of […]. The association was followed for 5 minutes and the dissociation for 15 minutes. Regeneration was performed twice using 10 mM Glycine pH 1.7 for 30 seconds. The kinetic parameters and the affinity constants were calculated using 1:1 Langmuir model.
Sequence of Human CD137 (R&D systems) (Q07011 24-186 limits assumed): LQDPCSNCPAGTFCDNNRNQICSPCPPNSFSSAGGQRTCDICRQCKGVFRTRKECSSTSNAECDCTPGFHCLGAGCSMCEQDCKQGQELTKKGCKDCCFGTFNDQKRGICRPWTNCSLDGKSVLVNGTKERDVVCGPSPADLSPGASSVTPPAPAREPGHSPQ

For assay [2], the target named is T1, biotinylated CD137 (UniProt Q07011 24-186, limits assumed, biotinylated). The assay can be described thus: SPR MASS-1, biotinylated antigen on streptavidin chip, parental mAb.
T1 sequence (Q07011 24-186 limits assumed): as above
Assay [3] addresses T2, CD40-Fc (Ancell #504-820) (human, UniProt P25942 21-193).
T2 construct: not shown: Fc part, bought reagent, not described
Nature of the assay: ELISA, coated CD40-Fc. As for the experimental part:
(§1) ELISA plates (Greiner #655074) were coated with 50 μl/well of recombinant human OX40 (R&D #1493-CD), CD40-Fc (Ancell #504-820) or CD137 (R&D #838-4B) diluted to a final concentration of 0.5 μg/ml in PBS for 1h at 37° C. or overnight at 4° C. Plates were washed with PBS+0.05% TWEEN20 (PBST), followed by block with PBST+1% bovine serum albumin (BSA). Antibody samples were prepared as serial 1/10 dilutions from 10-0.01 μg/ml in PBST+1% BSA and incubated for 1 h in room temperature, followed by detection using a horse radish peroxidase-conjugated anti-human kappa light chain antibody (AbD Serotec #STAR127P) and developed using SuperSignal ELISA Pico Chemiluminescent substrate (Pierce ThermoScientific #37069).

In assay [4] the target is T3, full-length human CD137 construct 1030 (human, UniProt Q07011 24-255).
T3 construct: whole, on cells; on transfected FreeStyle 293-F cells; also called Full-length CD137
T3 sequence (Q07011 24-255): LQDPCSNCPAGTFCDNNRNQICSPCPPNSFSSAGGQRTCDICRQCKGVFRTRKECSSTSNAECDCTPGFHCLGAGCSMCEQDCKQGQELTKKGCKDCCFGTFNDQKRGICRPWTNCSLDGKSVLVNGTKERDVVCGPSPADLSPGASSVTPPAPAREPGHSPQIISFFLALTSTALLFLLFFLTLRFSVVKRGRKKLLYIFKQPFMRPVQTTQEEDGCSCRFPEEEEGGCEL
Nature of the assay: flow cytometry, 293-F cells with full-length CD137 (reference of the normalization). As for the experimental part:
(§2) The ability of each antibody to bind to a panel of human/mouse CD137 chimeras expressed on the surface of transfected cells was analyzed by flow cytometry.
(§3) The chimeras were designed by exchanging domains or modules of the human CD137 with the corresponding mouse domain (FIG. 7). Genes of CD137 human/mouse chimeras were synthesized (GenScript) and constructs cloned into pcDNA3.1 vector (Invitrogen) and transiently transfected into FreeStyle 293-F cells (Invitrogen). The transfected cells were incubated with CD137 antibodies and control antibodies, followed by incubation with anti-human IgG-PE (Jackson Immunoresearch) for detection and analyzed with FACS Verse (BD Biosciences). Binding to the different chimeric constructs was calculated as relative MFI compared to the binding of the isotype control, followed by normalization to the full-length human CD137 construct to minimize the effect of affinity differences between individual antibodies.

Assay [5] has as its target T4, recombinant human CD137-Fc (R&D #838-4B) (human, UniProt Q07011 24-186).
T4 construct: bought; also called CD137 (R&D #838-4B); not shown: Fc part, bought reagent, not described
Nature of the assay: ELISA, coated CD137-Fc. As to the method:
Binding of CD137 antibodies to recombinant human CD137 was determined by sandwich ELISA. Briefly, ELISA plates (Greiner #655074) coated with recombinant human CD137-Fc (R&D #838-4B) were incubated with serial dilutions of the various CD137 antibodies to be investigated. CD137 antibodies were detected using HRP-conjugated goat-anti-human kappa light chain (AbD Serotec #STAR127P) and developed with SuperSignal ELISA Pico Chemiluminescent substrate (Pierce #37069). EC50 values of the various antibodies were determined in 2-6 separate experiments.
In general terms: In an ELISA, binding on a coated surface is turned into a signal by an enzyme label.

The target in assay [6] is T5, cynomolgus CD137 on transfected CHO cells (cynomolgus; human).
T5 construct: extracellular domain;domain: transmembrane and intracellular part; also called CHO-cyCD137; CHOcynoCD137
T5 sequence (P25942 other isoform, or with tags, fused parts or gaps): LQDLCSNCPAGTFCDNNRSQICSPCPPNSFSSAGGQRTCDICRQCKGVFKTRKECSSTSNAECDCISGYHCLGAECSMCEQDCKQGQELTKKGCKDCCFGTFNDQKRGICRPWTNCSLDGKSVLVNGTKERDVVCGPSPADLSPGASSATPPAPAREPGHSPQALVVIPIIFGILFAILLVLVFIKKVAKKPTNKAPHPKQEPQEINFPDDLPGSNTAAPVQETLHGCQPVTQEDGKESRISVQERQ
The assay can be described thus: flow cytometry, CHO-cyCD137; 95% CI of EC50. As for the experimental part:
(§4) Binding and EC50 was determined using flow cytometric analysis of CHO cells transfected with human CD137, cynomolgus CD137 or empty vector. The extracellular part of human or cynomolgus CD137 was fused to the transmembrane and intracellular part of human CD40 and cloned into pcDNA3.1. The vector was subsequently stably transfected into CHO cells. […] CD137-transfected and empty vector-transfected cells were incubated with CD137 antibodies for at least 1h at 4° C. to saturate the binding. In order to minimize antibody internalization, 0.05% sodium azide was used in the incubation buffer and all work was performed on ice. […] Directly after staining the cells were fixed with a paraformaldehyde solution (10x concentrate BD CellFIX, BD biosciences #340181). Cells were analyzed by flow cytometry using FACSVerse (BD Biosciences). The median fluorescence intensity (MFI) for each sample was determined and the dose response data was analysed using Graph Pad Prism.
(§5) MFI data was normalized for each antibody, where 0% is defined as the lowest value and 100% is the highest value in the dose titration for each antibody.

In assay [7] the target is T1, biotinylated CD137. Nature of the assay: SPR MASS-1, biotinylated antigen on streptavidin chip, parental mAb (same value as printed at r8c7, repeated in the row of 1618-1210).
Assay [8] addresses T6, human CD137 on transfected CHO cells (human, UniProt Q07011 24-186; P25942 194-277, limits assumed).
T6 construct: extracellular domain;domain: transmembrane and intracellular part; also called CHO-huCD137; CHOhCD137
The assay can be described thus: flow cytometry, CHO-huCD137; 95% CI of EC50. As to the method:
as §4, §5
Background: Flow cytometry measures light scatter and fluorescence of single cells or particles in a stream.

The target in assay [9] is T7, recombinant human OX40 (R&D #1493-CD) (human, UniProt P43489 29-216, limits assumed).
T7 sequence (looked up): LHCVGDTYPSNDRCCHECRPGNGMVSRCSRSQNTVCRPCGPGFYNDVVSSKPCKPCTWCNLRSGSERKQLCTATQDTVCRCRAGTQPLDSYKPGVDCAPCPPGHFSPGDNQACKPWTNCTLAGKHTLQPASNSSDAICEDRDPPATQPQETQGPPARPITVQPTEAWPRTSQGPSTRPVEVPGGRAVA
Nature of the assay: ELISA, coated OX40. As for the experimental part: as §1

Assay [10] concerns the target T5, cynomolgus CD137 on transfected CHO …. The assay can be described thus: flow cytometry, CD137-transfected CHO cells. As for the experimental part:
as §4, §5

Assay [11] concerns the target T8, human/mouse CD137 chimera 1553.
T8 construct: on transfected FreeStyle 293-F cells
Nature of the assay: flow cytometry, 293-F cells with CD137 chimera. As for the experimental part:
as §2, §3

The target in assay [12] is T9, human/mouse CD137 chimera 1550.
T9 construct: on transfected FreeStyle 293-F cells
The assay can be described thus: flow cytometry, 293-F cells with CD137 chimera. As for the experimental part:
as §2, §3

Assay [13] has as its target T10, human/mouse CD137 chimera 1551.
T10 construct: on transfected FreeStyle 293-F cells
Nature of the assay: flow cytometry, 293-F cells with CD137 chimera. As for the experimental part:
as §2, §3

The target in assay [14] is T11, human/mouse CD137 chimera 1555.
T11 construct: on transfected FreeStyle 293-F cells
Nature of the assay: flow cytometry, 293-F cells with CD137 chimera. As to the method:
as §2, §3

Assay [15] has as its target T12, human/mouse CD137 chimera 1552.
T12 construct: on transfected FreeStyle 293-F cells
The assay can be described thus: flow cytometry, 293-F cells with CD137 chimera. As for the experimental part: as §2, §3

Assay [16] deals with T13, human/mouse CD137 chimera 1554.
T13 construct: on transfected FreeStyle 293-F cells
The assay can be described thus: flow cytometry, 293-F cells with CD137 chimera. As to the method:
as §2, §3

T6 sequence (Q07011 other isoform, or with tags, fused parts or gaps limits assumed): as the sequence (P25942 other isoform, or with tags, fused parts or gaps) above, with L4P, S19N, K50R, I66T, S67P, Y69F, E75G, A149V counted along it
T2 sequence (P25942 21-193 limits assumed): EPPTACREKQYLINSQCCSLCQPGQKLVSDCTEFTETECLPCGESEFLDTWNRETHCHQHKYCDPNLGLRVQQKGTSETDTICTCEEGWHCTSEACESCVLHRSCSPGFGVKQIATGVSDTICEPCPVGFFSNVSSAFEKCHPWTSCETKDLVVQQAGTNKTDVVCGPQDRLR
T4 sequence (Q07011 24-186 limits assumed): as the sequence (Q07011 24-186 limits assumed) above

B1: 1618/1619 (antibody, V domains shown)
VH: EVQLLESGGGLVQPGGSLRLSCAASGFTFSYGSMYWVRQAPGKGLEWVSSISSGSGSTYYADSVKGRFTISRDNSKNTLYLQMNSLRAEDTAVYYCARSSYYGSYYSIDYWGQGTLVTVSS
VL: DIQMTQSPSSLSASVGDRVTITCRASQSISSYLNWYQQKPGKAPKLLIYAASSLQSGVPSRFSGSGSGTDFTLTISSLQPEDFATYYCQQYYDNLPTFGQGTKLEIK
Turning to B1, the Kd was 107 pM in assay [1], 156 pM in the assay with biotinylated CD137 [2] and 156 pM with biotinylated CD137 [7]. In assay [1], the dissociation rate constant (koff) worked out at 0.00011 s⁻¹. The same molecule had a kon in [1] of 1.02e+06 M⁻¹ s⁻¹. The binding result in assay [3] and in [9] was “no binding (tested: 10 µg/ml)” throughout. For the same molecule, the “MFI/isotype control normalized to full-length human CD137” value in assay [4] is 1; in [11] it was 1.24; in [12], 0.11; in [13] it was 0.67; in assay [14], 0.12; in assay [15] it was 1.2. In addition, the “MFI/isotype control normalized to full-length human CD137” value in assay [16] was found to be 1.01. Besides, the EC50 was 350 pM in [5], 0.086 to 0.15 µg/mL in assay [6] and 0.11 to 0.19 µg/mL in assay [8]. Further, the “Ratio, cyno:human” value in [10] worked out at 0.77.

What is called koff is the rate constant with which the complex falls apart. By kon is commonly meant the rate constant with which the complex forms. Low readings indicate slower complex formation, high ones faster complex formation. In general, EC50 refers to the concentration at which the effect is half-maximal.

These data come from patent publication US20190169308A1 (ALLIGATOR BIOSCIENCE, published 2019).
